{"source": "patent US20210403565A1", "about": "(BIOATLA, published 2021)", "binders": {"B1": {"name": "BA-087-05-19 (antibody, V domains shown)", "VH": "EVQLVESGGGLVQPGGSLRLSCAASGFTFSHYTMHWVRQAPGKGLEWVSFISYDGNNKYYADSVKGRFTISRDNSKNTLYLQMNSLRAEDTAVYYCARTGWLGPFDYWGQGTLVTVSS", "VL": "AIQLTQSPSSLSASVGDRVTITCRASQYVGSSYLAWYLQKPGQSPQLLIYGAFSRATGIPARFSGSGSGTEFTLTISSLQSEDFAVYYCQQDGSSPWTFGQGTKVEIK", "notes": "Detected with anti-human IgG and a molecular weight of 146 kDa was used in SPR, so it was tested as a whole IgG; also called BA-087-05-019; BA-087-05-19 (# 6972)"}, "B2": {"name": "BA-087-08-32 (antibody, V domains shown)", "VH": "EVQLVQSGAEVKKPGATVKISCKVSGFTFSHYTMHWIRQSPSRGLEWLGFISYDGNYKYYADSVKGRFTISRDNAKNSLYLQMNSLRAEDTAVYYCARTGWLGPFDYWGQGTLVTVSS", "VL": "EIVMTQSPATLSVSPGERATLSCRASQSVGSSYLAWYQQKPGKAPKLLIYGAFSRATGVPSRFSGSGSGTDFTLTISSLQPEDFATYYCQQDGSSPWTFGQGTKVEIK", "notes": "Detected with anti-human IgG and a molecular weight of 146 kDa was used in SPR, so it was tested as a whole IgG; also called BA-087-08-032; BA-087-08-32 (# 6978)"}}, "key": {"[1]": {"target": "T1, recombinant human CTLA4 extracellular domain (human, UniProt P16410 36-161)", "T1 construct": "extracellular domain; also called huCTLA-4", "T1 sequence (looked up)": "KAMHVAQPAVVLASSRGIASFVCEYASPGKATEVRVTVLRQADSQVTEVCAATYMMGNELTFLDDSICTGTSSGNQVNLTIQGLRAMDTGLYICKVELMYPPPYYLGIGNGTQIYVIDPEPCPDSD", "experiment": "SPR, human CTLA4 ECD immobilised, pH 7.4, run 3", "protocol": "(§1) The CTLA4 extracellular domain (human or cynomolgus) was immobilized on the surface of a sensor chip. […] The binding kinetics were calculated using a 1:1 Longmuir model built into the analysis software."}, "[2]": {"target": "T2, cynomolgus CTLA4 expressed on the cell surface of CHO cells (cynomolgus, UniProt G7PL88 36-223)", "T2 construct": "whole, on cells; also called CHO-cynoCTLA4", "T2 sequence": "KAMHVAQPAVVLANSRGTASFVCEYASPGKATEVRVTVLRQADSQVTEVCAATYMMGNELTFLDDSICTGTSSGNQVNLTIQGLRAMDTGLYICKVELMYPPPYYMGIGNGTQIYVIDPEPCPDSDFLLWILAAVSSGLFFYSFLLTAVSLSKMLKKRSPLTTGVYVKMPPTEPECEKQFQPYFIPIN", "experiment": "FACS, CHO cells expressing cynomolgus CTLA4 (CHO-cynoCTLA-4), pH 6.0, MFI; no unit in the table, unit from the axis Log Antibodies [ng/ml]", "protocol": "(§2) The amount of antibodies bound on the cells was quantified using anti-human IgG antibody conjugated to fluorophores. EC₅₀ values at pH 6.0 and 7.4 for binding to cells were calculated using the nonlinear fit (variable slope, four parameters) model built into GraphPad Prism software (version 7.03). The expression levels of human CTLA4 or cynomolgus CTLA4 on the surface of the CHO cells were determined using a BD QuantiBRITE™ PE kit.\nAt least two independent duplicate FACS experiments were performed for each antibody using each of the cell lines. The binding activities at different concentrations of the antibodies are plotted in these figures."}, "[3]": {"target": "T1, recombinant human CTLA4 extracellular …", "experiment": "SPR, human CTLA4 ECD immobilised, pH 7.4, AVG", "protocol": "as §1"}, "[4]": {"target": "T1, recombinant human CTLA4 extracellular …", "experiment": "SPR, human CTLA4 ECD immobilised, pH 6.0, AVG", "protocol": "as §1"}, "[5]": {"target": "T2, cynomolgus CTLA4 expressed on the cell …", "experiment": "FACS on CHO-cynoCTLA4 cells, pH 6.0, mean", "protocol": "as §2"}, "[6]": {"target": "T3, recombinant cynomolgus CTLA4 extracellular domain (cynomolgus, UniProt G7PL88 36-161)", "T3 construct": "extracellular domain; also called cynoCTLA-4; cynoCTLA4", "T3 sequence": "T1 sequence (looked up) with S14N, I18T, L106M", "experiment": "ELISA, immobilised cynoCTLA-4, pH 6.0, mean +/- SD; ELISA, pH 6.0, mean of the two runs"}, "[7]": {"target": "T1, recombinant human CTLA4 extracellular …", "experiment": "ELISA, immobilised huCTLA-4, pH 6.0, mean +/- SD", "protocol": "(§3) EC₅₀ values at pH 6.0 for binding to human CTLA4 were calculated using the nonlinear fit model (variable slope, four parameters) of GraphPad Prism version 7.03."}, "[8]": {"target": "T3, recombinant cynomolgus CTLA4 …", "experiment": "ELISA, immobilised cynoCTLA-4, pH 6.0, Jun. 19, 2017; ELISA, pH 6.0, Jun. 19, 2017"}, "[9]": {"target": "T1, recombinant human CTLA4 extracellular …", "experiment": "SPR, human CTLA4 ECD immobilised, pH 6.0, run 2", "protocol": "as §1"}, "[10]": {"target": "T4, human CTLA4 expressed on the cell surface of CHO cells (human, UniProt P16410 36-223)", "T4 construct": "whole, on cells; also called CHO-huCTLA4; huCTLA4", "T4 sequence (looked up)": "T2 sequence with N14S, T18I, M106L", "experiment": "FACS on CHO-huCTLA4 cells, pH 6.0, mean", "protocol": "as §2"}, "[11]": {"target": "T3, recombinant cynomolgus CTLA4 …", "experiment": "SPR, cynomolgus CTLA4 ECD immobilised, pH 6.0, equilibrium fit; SPR, pH 6.0", "protocol": "as §1\nThe KD was calculated by plotting the maximum SPR signal at each concentration against the antibody concentration. Experiments were run in triplicate at each pH."}, "[12]": {"target": "T1, recombinant human CTLA4 extracellular …", "experiment": "SPR, human CTLA4 ECD immobilised, pH 6.0, run 3", "protocol": "as §1"}, "[13]": {"target": "T1, recombinant human CTLA4 extracellular …", "experiment": "ELISA, immobilised huCTLA-4, pH 6.0, Jul. 11, 2017", "protocol": "as §3"}, "[14]": {"target": "T1, recombinant human CTLA4 extracellular …", "experiment": "SPR, human CTLA4 ECD immobilised, pH 7.4, run 2", "protocol": "as §1"}, "[15]": {"target": "T4, human CTLA4 expressed on the cell …", "experiment": "FACS competition on CHO-huCTLA4: antibody titrated against a fixed concentration of hB7-2 (hCD86), bound hB7-2 detected, % competition, plateaus about 48 to 57 %; pH 6.0 per the text; unit from the axis CTLA4 Ab concentration Log(ng/mL)"}}, "note": "Residue numbers refer to the chain shown, from its start."}
{"binder": "B1", "values": [{"measurement": "Kd", "setting": "[1]", "result": 1.12, "unit": "nM"}, {"measurement": "koff", "setting": "[1]", "result": 0.000943, "unit": "s⁻¹"}, {"measurement": "kon", "setting": "[1]", "result": 844000, "unit": "M⁻¹ s⁻¹"}, {"measurement": "EC50", "setting": "[2]", "result": 0.242, "unit": "µg/mL"}, {"measurement": "Kd", "setting": "[3]", "result": 1.1, "unit": "nM"}, {"measurement": "koff", "setting": "[3]", "result": 0.000958, "unit": "s⁻¹"}, {"measurement": "kon", "setting": "[3]", "result": 869000, "unit": "M⁻¹ s⁻¹"}, {"measurement": "Kd", "setting": "[4]", "result": 0.499, "unit": "nM"}, {"measurement": "koff", "setting": "[4]", "result": 0.000611, "unit": "s⁻¹"}, {"measurement": "kon", "setting": "[4]", "result": "1.23e+06", "unit": "M⁻¹ s⁻¹"}, {"measurement": "EC50", "setting": "[5]", "result": 0.316, "unit": "µg/mL"}, {"measurement": "EC50", "setting": "[6]", "result": 0.0276, "unit": "µg/mL"}, {"measurement": "EC50", "setting": "[7]", "result": 8.18, "unit": "ng/mL"}, {"measurement": "EC50", "setting": "[8]", "result": 0.0159, "unit": "µg/mL"}, {"measurement": "Kd", "setting": "[9]", "result": 0.481, "unit": "nM"}, {"measurement": "koff", "setting": "[9]", "result": 0.000604, "unit": "s⁻¹"}, {"measurement": "kon", "setting": "[9]", "result": "1.26e+06", "unit": "M⁻¹ s⁻¹"}, {"measurement": "EC50", "setting": "[10]", "result": 0.35, "unit": "µg/mL"}, {"measurement": "Kd", "setting": "[11]", "result": 1.96, "unit": "nM"}, {"measurement": "Kd", "setting": "[12]", "result": 0.543, "unit": "nM"}, {"measurement": "koff", "setting": "[12]", "result": 0.000598, "unit": "s⁻¹"}, {"measurement": "kon", "setting": "[12]", "result": "1.1e+06", "unit": "M⁻¹ s⁻¹"}, {"measurement": "EC50", "setting": "[13]", "result": 8.35, "unit": "ng/mL"}, {"measurement": "Kd", "setting": "[14]", "result": 0.781, "unit": "nM"}, {"measurement": "koff", "setting": "[14]", "result": 0.000669, "unit": "s⁻¹"}, {"measurement": "kon", "setting": "[14]", "result": 857000, "unit": "M⁻¹ s⁻¹"}, {"measurement": "EC50", "setting": "[15]", "result": 0.592, "unit": "µg/mL"}]}
{"binder": "B2", "values": [{"measurement": "Kd", "setting": "[1]", "result": 68.3, "unit": "nM"}, {"measurement": "koff", "setting": "[1]", "result": 0.0132, "unit": "s⁻¹"}, {"measurement": "kon", "setting": "[1]", "result": 194000, "unit": "M⁻¹ s⁻¹"}, {"measurement": "EC50", "setting": "[2]", "result": 0.354, "unit": "µg/mL"}, {"measurement": "Kd", "setting": "[3]", "result": 45.2, "unit": "nM"}, {"measurement": "koff", "setting": "[3]", "result": 0.0166, "unit": "s⁻¹"}, {"measurement": "kon", "setting": "[3]", "result": 519000, "unit": "M⁻¹ s⁻¹"}, {"measurement": "Kd", "setting": "[4]", "result": 0.451, "unit": "nM"}, {"measurement": "koff", "setting": "[4]", "result": 0.00163, "unit": "s⁻¹"}, {"measurement": "kon", "setting": "[4]", "result": "3.56e+06", "unit": "M⁻¹ s⁻¹"}, {"measurement": "EC50", "setting": "[5]", "result": 0.403, "unit": "µg/mL"}, {"measurement": "EC50", "setting": "[6]", "result": 0.276, "unit": "µg/mL"}, {"measurement": "EC50", "setting": "[7]", "result": 9.78, "unit": "ng/mL"}, {"measurement": "EC50", "setting": "[8]", "result": 0.259, "unit": "µg/mL"}, {"measurement": "Kd", "setting": "[9]", "result": 0.463, "unit": "nM"}, {"measurement": "koff", "setting": "[9]", "result": 0.00154, "unit": "s⁻¹"}, {"measurement": "kon", "setting": "[9]", "result": "3.32e+06", "unit": "M⁻¹ s⁻¹"}, {"measurement": "EC50", "setting": "[10]", "result": 0.243, "unit": "µg/mL"}, {"measurement": "Kd", "setting": "[11]", "result": 5.95, "unit": "nM"}, {"measurement": "Kd", "setting": "[12]", "result": 0.524, "unit": "nM"}, {"measurement": "koff", "setting": "[12]", "result": 0.00214, "unit": "s⁻¹"}, {"measurement": "kon", "setting": "[12]", "result": "4.08e+06", "unit": "M⁻¹ s⁻¹"}, {"measurement": "EC50", "setting": "[13]", "result": 6.17, "unit": "ng/mL"}, {"measurement": "Kd", "setting": "[14]", "result": 14.9, "unit": "nM"}, {"measurement": "EC50", "setting": "[15]", "result": 0.456, "unit": "µg/mL"}]}
